The subject of this series is O=C[C@H](O)[C@H](O)COP(=O)(O)O. In words: purified protein.

One may read the Km as the substrate concentration at which the rate is half of its maximum. Usually kcat stands for the number of substrate molecules converted per active site and unit of time at saturation. The kcat/Km is the turnover number divided by the Michaelis constant.

For the substance “3-deoxy-D-arabino-heptulosonate 7-phosphate synthase (MtuDAH7PS) (Mycobacterium tuberculosis H37Rv)”, the Km turned out to be 28 ± 2 µM, the kcat worked out at 4.7 ± 0.1 s⁻¹ and the specificity constant (kcat/Km) is 170000 ± 20000 M⁻¹ s⁻¹.

Source of the values: publication PMC4851294 (PLoS ONE, 2016).
